In the nanobody polyreactivity screen of Harvey et al. (2022):

Experiment: yeast display, Sf9 membrane polyspecificity reagent, FACS + sequencing; frameworks hold sequencing errors
How it was run: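 Galactose induction of a Saccharomyces cerevisiae BJ5465 synthetic nanobody display library ran 36–48 hours. The cells were then stained for 1 hour at 4 °C with 10% biotinylated, detergent-solubilized Sf9 membrane reagent, pulled down on streptavidin microbeads and FACS-sorted into low and high (top ~1%) gates on expression and reagent-binding fluorescence. Labels for polyreactivity follow the gate of origin.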

Sequence	polyreactivity (PSR sort gate)
QVQLVESGGGLVQAGGSLRLSCASSGSILTSYAMGWYRQAPRKERELVASIDWSAGTTYYADSVKGRFTISRDNAKNTVYLQMNSLKPEDTAVYYCGKLEFLSGYPYRPEYGSWGQGTQVTVSS	low polyreactivity
QVQLVESGGGLVQAGGSLRLSCAASGFTLARYAMGWYRQAPGKERELVAGITGGGSTYYADSVKGRFTISRDNAKNTVYLQMNSVKPEDTAVYYCNARTYWKSRLKQYNYWGQVTQVTVSS	high polyreactivity
QVQRVESGGGLVQAGGSLRLSCDASGFTFVPYAMGWYRQAPGKERELVAAISWRRGSTYYADSVKGRFTISRDNAKNTVYLQMNSLKPEDTAVYYCARKGYHYSETSAIFALYDYWGQGTQVTVSS	high polyreactivity
QVQLVESGGGLVQAGGSLRLSCAASGSTFKRNAMGWYRQAPGKERELVAAISWSGGSTYYADSVKGRFTISRDNAKNTVYLQMNSLKPEDTAVYYCNADHPFPQYEGGSWGQGTQVTVSS	low polyreactivity
QFQLEESGRGLVQAGGSLRLSCAASGRIFRYYAMGWYRQAPGKERELVAGISWRGSSTYYADSVKGRFTISRDNAKNTVYLQMNSLKPEDTAVYYCAARKASGRFGYWGQGTQVTVSS	high polyreactivity
QVQLVESGGGLVQAGGSLRLSCAACGLTYNANAMGWYRQAPGKERELVAAIDWIGGSTYYADSVKGRFTISRDNAKNTVYLQMNSLKPEDTAVYYCASRSKRRNYDYWGQGTQVTVSS	high polyreactivity
QVQLVESGGGLVQAGGSLRLSCAASGSTFAYYTMGWYRQAPGKERELVAAISASGGSTYYADSVKGRFTISRDFAKNTVYFQMNSLKPEDTAVYYCNAESYLTGWWVDYWGQGTQVTVSS	low polyreactivity
QVQLVESGGGLVQAGGSLRLSCAASGRIFRVYAMGWSRQAPGKERELVASITRTGGGTYYADSVKGRFTNSRDNAKNTVYLQMNRLKPEDPAVYYCAADAFIPGYQLHYHWGQGTQVTVSS	low polyreactivity
QDQLVESGGGLVQAGGSLRLSCAASGSTFHLNALGWYRQSPGKERELVAAISRDGSSTSYADSEKGRFTISRDNAKNTVYLQMNSLKPEDTAVFYCAADDTLDRVPSTFIDGSPGYGYWGLGTQVTVSS	low polyreactivity
QVQLVESGGGLFQAGGSLRLSCAASGFIFGQNAMGWYRQAPGKERELVAAIDWTGGRTYYADSVKGRFTISRDNAKNTVYLQMNSLKPEDTAVYYCAADGVWYADSPYSIHYGYWGQGTQVTVSS	low polyreactivity
QVQLVESGGGLVQAGGSLRLSCAASGFIFYPYAMGWYRQAPGKERELVAVITSGGRTYYADSVKGRFTISRDNAKNTVYLQMNSLKPEDTAVYYCAARYGRIQWKANWPEYGYWGQGTQVTVSS	low polyreactivity
QVQLVESGGGLVQAGGSLRLSCAASGFNIGRNAMGWYRQAPGKERELVAGISISGGSTYYADSVKGRFTISRDNAKNTVYLQMNSLKPEDTAVYYCAAEYAYSLDPEEDYWGQGTQVTVSS	high polyreactivity
QVQLVESGRGLVQAGGSLRLSCAASGRSFAVYAMAWYRPAPGKVMELVAAISSGGSTYYADSVKGRFTSSRDNAKNTVYVQMNSLKPEDSSVSYCAAGWKRLSGRKHYYWGQGTQVTVSS	high polyreactivity
QVQLVESGGGLVQAGGSLRLSCAASGYTFGYYAMGWYRQAPGKERELVAAISYSGGNTYYADSVKGRFTISRDNAKNTVYLQMNSLKPEDTAVYYCNKRYWVRTGKVSSYAYWGQGTQVTVSS	high polyreactivity
QVQLVESGGGLVQAGGSLRLSCAASGRTFRINAMGWYRQAPGKERELVAAISFRTDSTYYADSVKGRFTISRDNAKNTVYLQMNSLKPEDTAVYYCDARGLQVRTYDYWGQGTQVTVSS	high polyreactivity
QVHLVESGGGLVQAGGSLRLSCAASGRTFREYFMGWYRQAPGQERELVAVISWSTGSTYADSVKGRFTISRDNAKNTVYLQMNSLKPEDTAVYYCARRVQSLRNVVIYNYWGQGTQVTVSS	low polyreactivity
QVQLVESGGGLVQAGGSLRLSCAASGFTFYYYAMGWYRQAPGKERELVAAITWSGDSTNYADSVKGRFTISRDNAKNSVYLQMNSLKPEDTAVYYCATESYDSYGLYDYWGQGTQVTVSS	low polyreactivity
QVQLVESGGGLVQAGGSLRLSCAASGLTFTGYAMGWYRQAPGKERELVAAISRGDSTYYAYSVNGRFTISRDNAKNTVYLQMNSLKPEDTAVYYCAAYKGYGRRPGVSGYYWGQGTQVTVSS	high polyreactivity
QVQLVESGGGLVQAGGSLRLSCAASGRIITKYTMGWYRQAPGKVRELVAAISRSDRTNYADSVKGRFTISRDNAKNTVYLQMNSLKPEDTAVYYCNARHSYWTGRRVTDDYDYRGQGTQVTVSS	high polyreactivity
QVQLVESGGGLVQAGGSLRLSCAASGRIFRPNAMGWYRQAPGKERELVATITSDGSTKYADSVKGRFTISRDNAKNTVYLQMNSLKPEDTAVYYCAVRWARRYRYYYWGQGTQVTVSS	high polyreactivity
QVQLVESGGGLDQAGGSLRLSCAAAGRTFPYYAMGWYRQAPGKERELVATISTSGTSTYYADSVKGRFTISRDKAKNTVYLQMNSLKPEDTAVYYCNAVHRNWRQKFDYWGLGTQVTVSS	high polyreactivity
QVQLVESGGGLVQAGGSLRLSCAASGRTFVYYAMGWYRQAPGKERELVAAITSGGNTYYADSVKGRFTISRDNAKNTDYLQMNSLKPEDTAVYYCAAKRRRSFDYWGQGTQVTVSS	high polyreactivity

Sequence	polyreactivity (PSR sort gate)
QVQLVESGGGLVQAGGSLRLSCAASGSILEIYAMGWYRQAPGKEREVVASISWDVSSTYYADSVKGRFTISRDNAKNTVYLQMNSLKPEDTAVYYCATSLVWGLYDWYYDLSAAFDYWGQGTQVTVSS	low polyreactivity
QVQLVESGGGLVQAGGSLRLSCAASGSINCSNAMGLYRKAPRKERDLVAAITESGGDTYYADSVKGRFTISRDNAKNTVYLLINSMKPEDTAVYYCAARYFGVIVDVSLFSEYGSWGQGTQVTVSS	low polyreactivity
QVQLVESGGVLVQAGGSLRLSCAASGRIFIGYAMGGNRQAPGKERELVAAISSSGGRTYYADSVKGRFTISRDNAKYTVYLQMNSLKPEDSAVYYCAKSFTRNTDYEYWGQGTQVTVSS	high polyreactivity
QVQLVESGGGLVQAGGSLRLSCAASGSIFYPYAMGWYRQAPGKERELVATISSGVNTNYADSVKGRFTISRDNAKNTVYLQMNSLKPVDTAVYYCAARFRHSFRRGGGYNYDYWGQGTQVTVSS	high polyreactivity
QVQLVESGGGLVQAGGSLRLSCAASGSTFRTKAMGWYRHAPGKERELVAAITSGTRTYYADSVKGRFTLSRDNAKNTVYLQMNSLKPEDTAVYYCAAEYYGSSYSNYRTEYDYWGQGTQVTVSS	low polyreactivity
QVQLVESRGGLVQAGGSLRLSCAASGFIITQYAMGWYRQAPGKERELVAAISGRGGSTYYADSVKGRFTISRDNAKNTVYLQMNSLIPEDTAVYYCNTVRIGPPQDYDYWGQGTQVTVSS	high polyreactivity
QVQLVESGGGLVQAGGSLRLSCAASGSTFDGYAMGWYRQAPGKERELVAAISSSGAYTYYADSVKGRFTISRDIAKNTVFLQMNSLKPEDTAVYYCNRVTYQQKNDYCGQGTQVTVSS	high polyreactivity
QVQLVESGGGLVQAGGSLRLSCAASGRTFTTYAMGWYRQAPGKERELVAAISDTGGITYYADSVKGRFTISRDNAKNTVYLQMNSLKPEDTAVYYCNAESYRAPYDYWGQCTQVTVSS	low polyreactivity
QVQLVESGGGLVQAGGSLRLSCAASARTFRQYAMGWYRQSPGKERELVAAIRTNGGRTYYADSVKGRFTISRDNAKNTVYLQMNSLKPEDTAVYYCAVRPRPGYYYWGQGTQVTVSS	high polyreactivity
QVQLVESGGGLVQAGGSLRLSCAASGFIFRFNAMGWYRQAPGKERELVAGITWSGGSTYYADSVKGRFTISRDNAKNTVYLQMNSLKPEDTAVYYCAADNPYLGRKFDYWGQGTQVTVSS	high polyreactivity
QVQLVESGGGLVQAGGSLRLSCAASGSTFNGYTMGCYRQAPGKEREFVATITFSDGSTYYADSVKGRFTISRDNAKNTVYLQMNSLKPEDTAVYYCNVDSPIGYDYWGQGTQVTVSS	low polyreactivity
QVQLVESGGGIVQAGGSLRLSCDASGRIFTGNVMGWYRQAPGKERELVAAISRRGGGTYYADSVKGRFTISRDNAKNTVYLQMNSLIPEDTALYYCDAQYRSQGQPKGCVLYYYWVQGTQVTVSS	high polyreactivity
QVQLVESGGGLVQAGGSLRLTCAASGSIFRDNVMGWSRQAPGKERELVAAISKRGGSTYYADSVKGRFTISRDNAKNTVYLQMNSLKPEDTAVYYCAAPQGRSHYYRYDYWGQGTQVTVSS	high polyreactivity
QVQLVESGGGLVQAGASLRLSCAASGSTFYYNAMGWYRQAPGKERELVAAISKSSSRTYYADSVKGRFTISRDNAKNTVFLQMNSLKPEDTAGYYCAADAVYYHFDYWGQGTQVTVSS	high polyreactivity
QVQLVESGGGLVQAGGSLRLSCAASGRIFNKYTMGWYRQAPGKERELVAAIRGRGGSTYYADSVKGRFTISRDNAKNTVYLQMNSLKPEDTAVYYCAADSGPFYSKTPTRYGYWGQGTQVTVSS	high polyreactivity
QVHLVESGGGLVQAGGSLRLSCAASGRTLGGYAMGWYRQAPGKERELVAVITWNGGSTYADSVKGRFTISRDNAKNTVYLQRNSLKPEDTAVYYCAVYIPRGGRSGYWGQGTQVTVSS	high polyreactivity
QVQLQESGGGLVQAGGCLSCTASGTIFGQGDMGWYRPAPGKERELVATINDGASTYYADSVKGRFTISRDKAKNTVYLQKNSLNQDDTAVYYCAVFTDITTYFGYWGQGTQVTVSS	low polyreactivity
QVQLVESGGGLVQAGGSLRLSCAASGLIFYSYTMGWYRQAPGKERELVAVISRSGTSTYYADSVKGRFTISRDNAKNTVYLQMNSLKPEDTAVYYCAALTRSGPYAYEYWGQGTQVTVSS	high polyreactivity
QVQLVESGGGLVQAGGSLRLSCAASGSIFTGNTMGWYRQAPGKDRELVATISRRGGSTYYADSVKGRFTITRDNAKYSVYLQMNSLKPEDTAVYYCAARGPYRPPHGDAYYTYGYWGQGTQVTVSS	high polyreactivity
QVQLVESGGGLVQAGGSLRLSCAASGRTFSSYAMGWYRQAPGKERELVAAIDSGGNTYADSVKGRFTISRDNAKNTVYLQMNSLKPEDTAVYYCAVDGGEFSSYGYWGQGTQVTVSS	low polyreactivity
QVQLVESGGGLVQAGGSLRLSCAASGRTFYTYAMGWYRQAPGKERELVATITSGGSTYYGDSVKGRFTISRDNAKNTVYLQMNSLKPEDTAVYYCDVEVFVDYDYWGQGTQVTVSS	high polyreactivity
